Consider six molecules from patent US20260028417A1 (SICHUAN KELUN BIOTECH BIOPHARMACEUTICAL, published 2026).

The term EC50 denotes the concentration needed to bring the measured effect to its halfway point. One may read the Kd as the free concentration of one partner at which half of the binding sites on the other are occupied at equilibrium, for simple one-to-one binding. A word on the koff: it is a measure of how fast the partners let go of each other. What is called kon is the rate constant with which the complex forms.

Test [1] addresses T1, human HER3 protein (extracellular sequence with six histidines at the C-terminal) (human, UniProt P21860 20-643).
T1 construct: extracellular domain; Made in HEK293 cells; also called Human HER3-His
As to the kind of experiment: ELISA, coated human HER3 protein, chimeric antibody. The protocol:
(§1) The plate was washed 5 times with PBST (0.2% Tween-20). After the plate was dried, 100 μl of TMB (CoWin Biotech) chromogenic substrate was added to each well, reacted at room temperature for 3-5 minutes; 50 μl of 2N H₂SO₄ was added to each well to stop the chromogenic reaction, and absorbance value at OD450 nm was read with a microplate reader. The raw data were imported into GraphPad Prism 6 software for nonlinear curve fitting, and the EC50 values of each antibody binding to human HER3 and monkey HER3 were calculated.
In general terms: In an ELISA, binding on a coated surface is turned into a signal by an enzyme label.

The target of test [2] is T2, monkey HER3 protein (extracellular sequence with six histidines at the C-terminal) (monkey).
T2 construct: Made in HEK293 cells; also called Monkey HER3-His
T2 chain: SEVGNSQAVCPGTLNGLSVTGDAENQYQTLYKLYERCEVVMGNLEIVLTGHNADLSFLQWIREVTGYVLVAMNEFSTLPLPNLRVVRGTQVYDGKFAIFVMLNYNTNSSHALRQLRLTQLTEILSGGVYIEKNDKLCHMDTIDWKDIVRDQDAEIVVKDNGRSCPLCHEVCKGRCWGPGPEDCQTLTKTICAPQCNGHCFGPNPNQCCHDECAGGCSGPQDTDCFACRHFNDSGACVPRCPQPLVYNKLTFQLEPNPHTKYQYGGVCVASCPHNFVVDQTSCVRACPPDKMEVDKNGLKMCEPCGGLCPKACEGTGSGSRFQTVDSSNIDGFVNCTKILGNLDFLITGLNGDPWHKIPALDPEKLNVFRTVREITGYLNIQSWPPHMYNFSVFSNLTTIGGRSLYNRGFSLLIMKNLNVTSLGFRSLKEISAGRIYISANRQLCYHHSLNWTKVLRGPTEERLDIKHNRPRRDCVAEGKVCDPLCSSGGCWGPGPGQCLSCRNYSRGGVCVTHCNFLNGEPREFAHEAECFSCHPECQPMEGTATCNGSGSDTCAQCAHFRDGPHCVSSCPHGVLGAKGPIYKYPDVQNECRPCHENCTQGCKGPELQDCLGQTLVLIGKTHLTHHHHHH
Put plainly: ELISA, coated monkey HER3 protein, chimeric antibody. The protocol:
as §1

In test [3] the target is T3, human HER3 on cells (human, UniProt P21860 20-1342).
T3 construct: whole, on cells; also called T47D; NCI-N87
As to the kind of experiment: flow cytometry on T47D cells. As to the method:
(§2) Data processing: the Median PE values were exported, then imported into GraphPad Prism 6 software, and EC50 values were calculated.

Test [4] addresses T1, human HER3 protein (extracellular …). As to the kind of experiment: BLI (ForteBio), antibody captured on Protein A sensor, human HER3-His in solution, 1:1 global fit. As to the method:
(§3) The measured results were entered into Data Analysis 11.0 software, by using 1:1 mode, and global fitting; the results were analyzed to obtain the association rate, dissociation rate and affinity constant.
For orientation: Biolayer interferometry detects binding as a change in optical thickness at a sensor tip.

Test [5] has as its target T2, monkey HER3 protein (extracellular …). Put plainly: ELISA, coated monkey HER3-His. The protocol:
(§4) The plate was washed 5 times with PBST (0.2% Tween-20), and dried, then 100 μl of TMB (InnoReagents) chromogenic substrate was added to each well, reacted at room temperature for 3-5 minutes, then 50 μl of 2N H₂SO₄ was added to each well to stop the chromogenic reaction, and the absorbance value at OD450 nm was read with a microplate reader. The raw data were imported into GraphPad Prism 6 software for nonlinear curve fitting, and EC50 values were calculated.

The next test deals with T4, rat HER3 protein (rat, UniProt Q62799 20-643).
T4 construct: whole entry named; also called Rat HER3-His; rat protein
T4 sequence (Q62799 20-643): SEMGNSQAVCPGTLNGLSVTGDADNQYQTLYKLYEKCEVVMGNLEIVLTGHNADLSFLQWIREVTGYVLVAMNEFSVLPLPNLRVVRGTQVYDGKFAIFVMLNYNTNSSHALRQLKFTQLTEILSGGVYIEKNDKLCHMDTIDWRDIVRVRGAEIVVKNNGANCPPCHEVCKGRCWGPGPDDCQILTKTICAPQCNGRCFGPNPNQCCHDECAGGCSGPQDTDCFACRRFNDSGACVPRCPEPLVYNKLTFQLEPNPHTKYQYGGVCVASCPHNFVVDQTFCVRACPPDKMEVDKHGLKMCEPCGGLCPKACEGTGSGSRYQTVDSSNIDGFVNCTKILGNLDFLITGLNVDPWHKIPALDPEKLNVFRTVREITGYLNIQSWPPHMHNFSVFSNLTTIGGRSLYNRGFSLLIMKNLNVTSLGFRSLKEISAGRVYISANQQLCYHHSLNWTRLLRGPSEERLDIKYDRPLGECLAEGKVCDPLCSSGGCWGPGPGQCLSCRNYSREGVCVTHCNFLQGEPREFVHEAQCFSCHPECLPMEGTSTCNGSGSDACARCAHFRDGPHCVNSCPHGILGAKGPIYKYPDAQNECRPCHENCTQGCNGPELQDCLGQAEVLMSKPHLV
Put plainly: ELISA, rat HER3 protein coated at 1 µg/ml, anti-human IgG-HRP, OD450. The protocol: as §4

In test [6] the target is T1, human HER3 protein (extracellular …). Put plainly: competition ELISA on coated human HER3 protein (1 µg/ml); competitor: biotin-labelled U1-59 (U1-59-Bio, diluted to 50 ng/ml); streptavidin-HRP, OD450. The protocol:
(§5) The plate was washed with PBST (0.2% Tween-20) for 3 times, and dried, 100 μl of diluted Peroxidase-conjugated Streptavidin secondary antibody (Proteintech) was added to each well, and incubated at room temperature for 1 hour; the plate was washed 5 times with PBST (0.2% Tween-20), and dried, 100 μl of TMB (InnoReagents) chromogenic substrate was added to each well, reacted at room temperature for 3-5 minutes; 50 μl of 2N H₂SO₄ was added to each well to stop the chromogenic reaction, and OD450 nm absorbance value was read with a microplate reader. The raw data were imported into GraphPad Prism 6 software for nonlinear curve fitting (4-parameter).

The target in test [7] is T3, human HER3 on cells. Put plainly: flow cytometry on NCI-H358 cells. As to the method:
as §2

In test [8] the target is T2, monkey HER3 protein (extracellular …). Put plainly: BLI (ForteBio), antibody captured on Protein A sensor, monkey HER3-His in solution, 1:1 global fit. As to the method: as §3
Test [9] addresses T1, human HER3 protein (extracellular …). Put plainly: competition ELISA on coated human HER3 protein (1 µg/ml); competitor: biotin-labelled 47A3E3-hIgG (47A3E3-hIgG-Bio, diluted to 15 ng/mL); streptavidin-HRP, OD450. The protocol:
as §5

The target in test [10] is T3, human HER3 on cells. Put plainly: cell-based or functional assay.
For test [11], the target named is T1, human HER3 protein (extracellular …). As to the kind of experiment: ELISA, coated human HER3-His. As to the method: as §4
The target in test [12] is T3, human HER3 on cells. As to the kind of experiment: flow cytometry on NCI-N87 cells. The protocol: as §2
Background: Flow cytometry measures light scatter and fluorescence of single cells or particles in a stream.

Test [13] concerns the target T3, human HER3 on cells. As to the kind of experiment: cell-based or functional assay. This is another data set of the same source.
In test [14] the target is T3, human HER3 on cells. As to the kind of experiment: cell-based or functional assay. The source holds these as a separate data set.
In test [15] the target is T3, human HER3 on cells. As to the kind of experiment: competition flow cytometry on adherent cells (cell line not named in paragraph 175); competitor: 22B6D2-hIgG-Bio, final 25 ng/ml; PE streptavidin. The source says: Data processing: the Median PE values were exported, and then imported into GraphPad Prism 6 software for nonlinear curve fitting (4-parameter).
For test [16], the target named is T3, human HER3 on cells. As to the kind of experiment: cell-based or functional assay. The source holds these as a separate data set.
The target of test [17] is T1, human HER3 protein (extracellular …). As to the kind of experiment: competition ELISA on coated human HER3 protein (1 µg/ml); competitor: biotin-labelled 22B6D2-hIgG (22B6D2-hIgG-Bio, diluted to 3 ng/mL); streptavidin-HRP, OD450. The protocol:
as §5

B1: 44A4A11 (anti-human HER3 chimeric antibody) (antibody, V domains shown)
VH: EVQLLESGGGLVQPGGSLRLSCAASGFTFSSYAMNWVRQAPGKGLEWVSSISDSGGSTYYADSVKGRFTISRDNSKNTLYLQMNSLRAEDTAVYYCAKDGGISMVRGVIIEEGYFDLWGRGTLVTSPQ
VL: DIQLTQSPSFLSASVGDRVTITCRASQGISSYLAWYQQKPGKAPKLLIYVVSTLQSGVPSRFSGSGSGTEFTLTISSLQPEDFATYYCHQLNSYPLTFGGGTKVEIK
For the molecule B1, the EC50 was 0.0121 µg/mL in test [1] and 0.0065 µg/mL in test [2].

B2: 47A3E3-hIgG (anti-human HER3 fully human antibody) (antibody, V domains shown)
VH: EVQLQESGPGLVKPSQTLSLTCAISGDSVSSSQSTWNWIRQSPSRGLEWLGRTFYRSRWYNDYALSMKSRITINPDTSKNQFSLQLNPVTPEDTAVYYCARDTYYYGSGGFDYWGQGSRVTVSS
VL: DIQMTQSPSTLSASVGDRVTITCRASQSLSRWLAWYQQKPEKAPKLLIYKASSLESGVPSRFSGSGSGTEFTLTISTLQPDDFATYYCQQYKNYYSFGQGTKLEIKR
notes: Human IgG1/kappa, expressed in CHO-S cells; also called 47A3E3-hIgG-Bio (biotin-labelled)
On to B2, for which the EC50 was found to be 0.0601 µg/mL with human HER3 on cells [3]; 0.00666 µg/mL in test [5]; 0.0989 µg/mL with human HER3 on cells [7]; 0.00713 µg/mL in test [11]; 0.0923 µg/mL in the test with human HER3 on cells [12]. Moreover, the Kd in test [4] is 29.1 nM; in [8] it was 74.8 nM. Moreover, the koff in [4] was determined as 0.0104 s⁻¹; in test [8], 0.0111 s⁻¹. Moreover, the figures for the kon in [4] and in [8] were 356000 M⁻¹ s⁻¹ and 148000 M⁻¹ s⁻¹, respectively. In addition, the binding result with rat HER3 protein is on record as “no binding”. The results for the “IC50 (read off the curve)” value in test [6] and in test [9] were around 0.1 µg/mL and around 0.5 µg/mL, respectively. In addition, the “ADCC activity, EC50 (Jurkat-NFAT/luciferase-CD16a reporter with CHO-S-hHER3 target cells)” value in the test with human HER3 on cells [10] was determined as 0.0223 µg/mL.

B3: 47A3E3 (anti-human HER3 chimeric antibody) (antibody, V domains shown)
VH: EVQLQESGPGLVKPSQTLSLTCAISGDSVSSSQSTWNWIRQSPSRGLEWLGRTFYRSRWYNDYALSMKSRITINPDTSKNQFSLQLNPVTPEDTAVYYCARDTYYYGSGGFDYWGQGSRVTVSS
VL: DIQMTQSPSTLSASVGDRVTITCRASQSLSRWLAWYQQKPEKAPKLLIYKASSLESGVPSRFSGSGSGTEFTLTISTLQPDDFATYYCQQYKNYYSFGQGTKLEIK
Turning to B3, the half-maximal effective concentration (EC50) came to 0.0096 µg/mL in test [1] and 0.0101 µg/mL in [2].

B4: 22B6D2-hIgG (anti-human HER3 fully human antibody) (antibody, V domains shown)
VH: EVHLVESGGGVVQPGRSLRLSCATSGFTFRSYGMHWVRQAPGKGLEWVAVIWYDGSNKYYADSVKGRFTISRDISKNTLYLQMNSLTAEDTAVYYCARYYYDSNGYYDAFDIWGQGTMVTVSS
VL: DIQLTQSPSFLSASVGDRVTITCRASQGISNYLAWYQQKPGKAPKLLIFAASTLQSGVPSRFSGSGSGAEFTLTISSLEPEDFATYYCQQLNSYPITFGQGTRLEIKR
notes: Human IgG1/kappa, expressed in CHO-S cells; also called 22B6D2-hIgG-Bio (biotin-labelled)
With B4, the “IC50 of inhibition of ligand (NRG1)-induced AKT phosphorylation in MCF-7 cells” value with human HER3 on cells [13] turned out to be 0.0912 µg/mL. For the same molecule, in the test with human HER3 on cells [14], the “internalization activity, EC50, HPAF-II cells (flow cytometry)” value worked out at 0.0294 µg/mL. Further, the “internalization activity, EC50, MDA-MB-453 cells (flow cytometry)” value with human HER3 on cells [14] turned out to be 0.0229 µg/mL. Further, the “internalization activity, EC50, NCI-358 cells (flow cytometry)” value with human HER3 on cells [14] came to 0.067 µg/mL. In the test with human HER3 on cells [14], the “internalization activity, EC50, WIDR cells (flow cytometry)” value amounted to 0.0301 µg/mL. Besides, the EC50 in the test with human HER3 on cells [3] was determined as 0.0383 µg/mL; in test [5], 0.00363 µg/mL; with human HER3 on cells [7] it was 0.0857 µg/mL; in test [11], 0.00407 µg/mL; with human HER3 on cells [12], 0.0446 µg/mL. The equilibrium dissociation constant (Kd) in test [4] was 11.1 nM; in test [8], 49.6 nM. For the same molecule, the koff in test [4] turned out to be 0.00397 s⁻¹; in test [8], 0.00825 s⁻¹. Besides, the kon was 357000 M⁻¹ s⁻¹ in test [4] and 166000 M⁻¹ s⁻¹ in [8]. The “ADCC activity, EC50 (Jurkat-NFAT/luciferase-CD16a reporter with CHO-S-hHER3 target cells)” value in the test with human HER3 on cells [10] amounted to 0.00973 µg/mL. Besides, the “IC50 (read off the curve)” value with human HER3 on cells [15] was around 0.1 µg/mL; in [17], around 0.4 µg/mL. The “ADCC activity, enhancement against U1-59” value with human HER3 on cells [16] was found to be 1.86 fold.

B5: 22B6D2 (anti-human HER3 chimeric antibody) (antibody, V domains shown)
VH: EVHLVESGGGVVQPGRSLRLSCATSGFTFRSYGMHWVRQAPGKGLEWVAVIWYDGSNKYYADSVKGRFTISRDISKNTLYLQMNSLTAEDTAVYYCARYYYDSNGYYDAFDIWGQGTMVTVSS
VL: DIQLTQSPSFLSASVGDRVTITCRASQGISNYLAWYQQKPGKAPKLLIFAASTLQSGVPSRFSGSGSGAEFTLTISSLEPEDFATYYCQQLNSYPITFGQGTRLEIK
notes: detected with anti-Rat IgG
B5: the concentration for a half-maximal effect (EC50) in test [1] amounted to 0.0054 µg/mL; in test [2] it was 0.0071 µg/mL.

B6: 100H7D3 (anti-human HER3 chimeric antibody) (antibody, V domains shown)
VH: EVQLVESGGGVVLPGRSLRLSCAASGFTFSRNAMHWVRQAPGKGLEWVAVIWHDGSNKYYGDSVKGRFTISRDNSKNTLYLQMDSLTAEDTAVYYCARDRGASDFRGQGTLVTVSS
VL: DIQMTQSPSTLSASVGDRVTITCRASQSINNWLAWYQQKPEKAPKLLIYKASSLESGVPSRFSGSGSGTEFTLTISSLQPDDFATYYCQQYNSYSLTFGGGTKVEIK
As to B6, the results for the EC50 in [1] and in test [2] were 0.0131 µg/mL and 0.0187 µg/mL, respectively.
